Laboratory results reported in patent US20140161732A1 (published 2014).
Bridge positions count the residues as written; N and C are the ends.

Target: KDR on human umbilical vein endothelial cells (HUVECs) (human, UniProt P35968 20-1356)
Experiment: cell-based or functional assay

KDR on human umbilical vein endothelial cells (HUVECs), sequence (P35968 20-1356): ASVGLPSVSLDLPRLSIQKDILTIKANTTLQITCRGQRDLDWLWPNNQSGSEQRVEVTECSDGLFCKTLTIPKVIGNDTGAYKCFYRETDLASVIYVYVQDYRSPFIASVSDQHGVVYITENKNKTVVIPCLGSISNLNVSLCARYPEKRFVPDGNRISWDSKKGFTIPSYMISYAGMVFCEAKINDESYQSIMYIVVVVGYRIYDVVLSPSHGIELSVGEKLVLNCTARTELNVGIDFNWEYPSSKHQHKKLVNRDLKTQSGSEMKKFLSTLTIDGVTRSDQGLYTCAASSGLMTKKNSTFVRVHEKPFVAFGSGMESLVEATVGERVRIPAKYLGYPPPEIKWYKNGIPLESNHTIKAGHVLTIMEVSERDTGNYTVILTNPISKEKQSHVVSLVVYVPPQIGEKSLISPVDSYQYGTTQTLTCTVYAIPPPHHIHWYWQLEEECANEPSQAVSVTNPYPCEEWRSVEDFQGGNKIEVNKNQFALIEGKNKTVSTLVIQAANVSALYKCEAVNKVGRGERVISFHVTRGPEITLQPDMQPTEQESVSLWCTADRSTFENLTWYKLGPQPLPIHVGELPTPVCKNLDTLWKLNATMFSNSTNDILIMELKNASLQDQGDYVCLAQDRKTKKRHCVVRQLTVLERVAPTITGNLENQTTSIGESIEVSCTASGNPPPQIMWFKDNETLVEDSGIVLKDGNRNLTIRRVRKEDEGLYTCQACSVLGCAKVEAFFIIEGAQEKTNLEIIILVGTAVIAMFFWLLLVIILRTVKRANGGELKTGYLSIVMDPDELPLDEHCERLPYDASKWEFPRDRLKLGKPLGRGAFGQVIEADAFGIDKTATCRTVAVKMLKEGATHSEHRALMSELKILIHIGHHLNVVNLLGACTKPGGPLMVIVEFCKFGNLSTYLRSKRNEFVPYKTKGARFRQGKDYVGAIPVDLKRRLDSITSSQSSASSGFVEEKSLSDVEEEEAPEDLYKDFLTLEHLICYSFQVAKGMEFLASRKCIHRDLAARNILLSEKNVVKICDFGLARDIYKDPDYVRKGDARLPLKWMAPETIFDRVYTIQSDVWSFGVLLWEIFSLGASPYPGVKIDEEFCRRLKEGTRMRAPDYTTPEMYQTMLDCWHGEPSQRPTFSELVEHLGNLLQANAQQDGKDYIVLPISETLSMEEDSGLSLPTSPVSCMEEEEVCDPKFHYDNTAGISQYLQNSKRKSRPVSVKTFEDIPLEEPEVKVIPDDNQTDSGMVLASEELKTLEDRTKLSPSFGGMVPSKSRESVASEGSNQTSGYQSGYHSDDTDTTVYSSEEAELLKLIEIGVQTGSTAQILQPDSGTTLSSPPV

B1: SEQ ID NO:269 (peptide)
peptide: Ac-AGWIECYHPDGICYHFGTGGGK-NH2
modifications: disulfide 6-13 (inferred); also: fluorescein on C-terminal Lys in anisotropy assay only
VEGF-induced KDR phosphorylation in HUVECs (immunoblot): ≥ 50 % inhibition at 10 µM

B2: SEQ ID NO:294 (peptide)
peptide: Ac-GDSRVCWEDSWGGEVCFRYDPGGGK-NH2
modifications: disulfide 6-16 (inferred); also: fluorescein on C-terminal Lys in anisotropy assay only
VEGF-induced KDR phosphorylation in HUVECs (immunoblot): ≥ 50 % inhibition at 10 µM
